Changes are numbered by the printed parent chain.
T1: hiR1-FL-WT-T7 (human iRhom1 full length wild type C-terminally tagged with 3 consecutive copies of the T7 … (human, UniProt Q96CC6 1-855))
T1 construct: also called human iRhom1 variant expressed by MEF-DKO-hiR1-FL-WT-T7 cells
T1 sequence: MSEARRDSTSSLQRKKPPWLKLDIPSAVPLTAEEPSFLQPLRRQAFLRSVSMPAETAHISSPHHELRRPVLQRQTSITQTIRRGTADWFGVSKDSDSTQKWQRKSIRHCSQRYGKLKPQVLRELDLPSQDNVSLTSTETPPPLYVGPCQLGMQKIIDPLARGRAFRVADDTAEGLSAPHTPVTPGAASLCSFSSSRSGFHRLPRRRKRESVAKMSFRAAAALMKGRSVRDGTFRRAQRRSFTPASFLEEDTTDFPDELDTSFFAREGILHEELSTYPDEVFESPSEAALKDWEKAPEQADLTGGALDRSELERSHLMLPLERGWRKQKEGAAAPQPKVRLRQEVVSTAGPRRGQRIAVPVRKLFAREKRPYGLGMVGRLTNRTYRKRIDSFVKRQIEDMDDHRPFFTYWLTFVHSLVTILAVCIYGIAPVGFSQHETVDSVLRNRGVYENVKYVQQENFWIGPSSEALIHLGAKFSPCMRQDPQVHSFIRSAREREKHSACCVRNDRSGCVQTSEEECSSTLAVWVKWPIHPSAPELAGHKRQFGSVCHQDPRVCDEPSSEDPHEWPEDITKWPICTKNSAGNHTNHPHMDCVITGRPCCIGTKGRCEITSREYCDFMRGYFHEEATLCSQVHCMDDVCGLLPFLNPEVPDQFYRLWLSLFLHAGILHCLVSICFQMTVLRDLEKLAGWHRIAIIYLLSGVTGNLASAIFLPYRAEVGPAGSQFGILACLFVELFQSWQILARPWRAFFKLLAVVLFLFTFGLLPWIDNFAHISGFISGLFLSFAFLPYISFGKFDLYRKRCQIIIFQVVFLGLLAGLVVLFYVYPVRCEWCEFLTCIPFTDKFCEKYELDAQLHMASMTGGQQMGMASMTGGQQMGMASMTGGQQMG

B1: antibody 43 (antibody, V domains shown)
VH: QVALKESGPGILQPSQTLSLTCSFSGFSLSTFGMGVGWIRQSSGKGLEWLANIWWDDDKYYNPALKSRLTISKDASKNQAFLKIANVDTADTATYYCARIGNYGSNYWYFDVWGTGTTVTVSS
VL: QIVLTQSPAIMSASPGERVTMTCSANSRISYMYWYQQKPGSSPRLLIYDTSNLASGVPVRFSGSGSGTSYSLTISRMEAEDAATYNCQQWSSYPLTFGAGTKLELK
notes: Mouse IgG, kappa light chain; also called clone #43
B2: antibody 5 (antibody, V domains shown)
VH: B1 VH with A3T, S42P, N52H, D58E, P63S, D74A, A75T, G101S, D111N
VL: QVVLTQSPALMSASPGEKVTMTCSAGSSVSCMYWYQQKPGSSPRVLIYDTSNLASGVPARFTGSGSGTSYSLTISRMEAEDAASYYCQQWNSYPLTFGAGTKLELK
notes: Mouse IgG, kappa light chain; also called clone #5; purified antibody 5
B3: antibody 42 (antibody, V domains shown)
VH: B1 VH with A3T, F24L, M34R, S42P, N52H, D58E, A75T, A80V, K83R, G101Q
VL: B1 VL with Q1L, R18K, S24G, N26T, Y33F, L45V, M77V, A82V, N86Y, S91N
notes: Mouse IgG, kappa light chain; also called clone #42; m42
B4: antibody 44 (antibody, V domains shown)
VH: B1 VH with A3T, S42P, G44E, N52H, A75T, A80I, A85T, D91E, A98S
VL: QIVLTQSPAVMSASPGEKVTMTCTASSSVYYMYWYQQTPGSSPRLLIYDTSNLASGVPVRFSGSGSGTSYSLTISRMEAEDAATYYCQQWNTYPLTFGAGTKLELK
notes: Mouse IgG, kappa light chain; also called clone #44; m44
B5: antibody 22 (antibody, V domains shown)
VH: B1 VH with A3T, S42P, N52H, D58E, P63S, D74A, A75T, A80V, G101S, D111N
VL: B2 VL with C31Y, S84T
notes: Mouse IgG, kappa light chain; also called clone #22; m22
B6: antibody 50 (antibody, V domains shown)
VH: QVQLQQSGAELVRPGASVKVSCKASGYAFSNYLIEWVKQRPGQGLEWIGVINPGSGFTKYNEKFKGKATLTADKSSSTAYMQLSSLTSEDSAVYFCARGLYRAMDYWGQGTSVTVSS
VL: DIQMTQSPASQSASLGESVTITCLASQTIGTWLAWYQQKPGKSPQLLIYAAASLADGVPSRFSGGGSGTKFSFKISSLQAEDFVNYYCQQIYSTPYTFGGGTKLEIK
notes: Mouse IgG, kappa light chain; also called clone #50; purified antibody 50
B7: antibody 16 (antibody, V domains shown)
VH: QVTLKESGPGILQPSQTLSLTCSFSGFSLSTFALGVGWIRQPSGRGLEWLAHIWWDDDKYYNPALKSRLTISKDTSKNHVFLKIANVDTADTATYYCARITTYYYGMDYWGQGTSVTVSS
VL: DIVLSQSPATLSVTPGDSVSLFCRASQSIGNHLHWYQQESHASPRLLIKYASQSISGIPSRFSGSGSGTDFTLSINSVETEDFGMYFCQQSYNWPLTFGAGTKLELK
notes: Mouse IgG, kappa light chain; also called clone #16; m16
B8: antibody 3 (antibody, V domains shown)
VH: QVTLKESGPGILQPSQTLSLTCSFSGFSLTTFAMGIGWVRQPSGKGLEWLAHIWWDGEKYNNPVLKSRLTISKDTSKNQVFLRIANVDTPDTATYYCARISSIYYIIDNWGQGTSVTVSS
VL: B7 VL with S5T, D17H, F22S, G30S, H32N, Q38K, E39K, A42E, A51V
notes: Mouse IgG, kappa light chain; also called clone #3; purified antibody 3
B9: antibody 34 (antibody, V domains shown)
VH: QVTLKESGPGILQPSQTLSLTCSFSGFSLSTFSLGVGWIRQSSGKGLEWLAHIWWDDEKYYNPALKSRLTISKDTSKNQVFLKIANVDAADTATYYCARAYYSKSYYALDYWGQGTSVTVSS
VL: DIQMTQSPSSLSASLGERVSLTCRASQEISGYLSWLQQKPDGTIKRLIYAASTLDSGVPKRFSGSRSGSDYSLAISSLESEDFADYYCLQYANFPFTFGSGTKLEIK
notes: Mouse IgG, kappa light chain; also called clone #34; m34

biological target: T1, hiR1-FL-WT-T7 (human iRhom1 full length …); test: FACS on cells of the row human iR1 wild type, vs human iR2 wild type = 100%

| Binder | grade of loss of binding vs wild type |
| --- | --- |
| B1 | 3 grade (3 => 95% loss of binding vs wild type) |
| B2 | 3 grade (3 => 95% loss of binding vs wild type) |
| B3 | 3 grade (3 => 95% loss of binding vs wild type) |
| B4 | 3 grade (3 => 95% loss of binding vs wild type) |
| B5 | 3 grade (3 => 95% loss of binding vs wild type) |
| B6 | 3 grade (3 => 95% loss of binding vs wild type) |
| B7 | 3 grade (3 => 95% loss of binding vs wild type) |
| B8 | 3 grade (3 => 95% loss of binding vs wild type) |
| B9 | 3 grade (3 => 95% loss of binding vs wild type) |
